Measurements from the domain aggregation screens of Martell et al. (2025).

Assay: soluble fraction after stress (log2 fold change); higher = more stays soluble; pooled small domains, quantitative proteomics
Settings: stress: pH 4
Procedure, shortened: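 Aggregation propensity here comes from the fold change in the soluble amount of each small protein domain after acid stress, measured in pooled custom libraries by high-throughput quantitative proteomics. The acid stress was pH 4. On the log2 scale, higher values mean more of the domain stayed soluble.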

Sequence | soluble fraction (log2)
HMSEKLTLEAANEAAGMRIDKWLAMQLPELSRSRIEALISGGGVVVNGKNPSKSLKLKGGEQIELEIPE | 0.108
HMHFIMEYRIRAYVDELFESAPRTQRAYELKIELTQNLIDKYYALVSEGKSEQDAYNLTVMSIGDVREL | -0.959
HMIDVNLVQRGKTLHLRRRVPMRYSSVERREYVSISLKTDSEAEARRKAGAAWDQMIAAWEARLA | -0.12
HMEVKVSGHLEAIGGVYHMKLSWIDDAGKRRRKSKSTGLAERGNKKRANDMLIDFMREQEAEIAASGD | ≥ 0.43
HMESLNDRIKLVFKDSGLTQMDISKRLNIAQSSVSGIISGKANPSKRTLADIADRFDVNLEWLRDGTGPMK | 0.199
HMGEIHAQIPGLVSHLFVKEGNTVQVEQKLFILEAMKMENEIDSPIQGTVKRIHIATGSKVEKGDLIMEIS | -0.117
HMTTGREGLIGAVGTVRQAIAPEGYVFVEGELWRAKSPAGPLEPGTTVRVIAIDGLTLTVMPAE | -0.564
HMAQLSDDEQAIIDTITRRGDATMSELIASVNVSTPRLMSMLIDMEFRSLITALPGGRYQIRLIN | -0.464
HMAQQEMEIIPLRHRQVEQVMPTLRPLLEPGAALSGMNNQLILRASRKNREEIKQALAVIDT | 0.121
HMEKEEELNSIRPDLDGNDIMEILGVPAGPKVGKAYNYLLNVRLDEGPLSRAEAISRLEAWWENQ | -1.22
HMISASDLQTYLKGMDYPARKEDLIVHAQRNNAPESVIAAIRQFSDRTYQSAADVSEEFGKI | -0.468
HMTKNEFLASFQNELQKRHIPDWEDVVSEYEQHFALKQADGFSEEEIAAKLGAPAELAAQFEA | -0.0811
HMEGSLQEDKVKEYQDRFKEELSNDLNTANSITVLYDLIKDDTLNGTTKRYLIEDFDKILSLDLIKE | -0.854
HMSFDNIKVGYISETAGYVKGISLADANEYAKLNPDTEFIFIDGDEKVRFLTINEVNGLTPKNLLRSDP | -1.6
HMESPLNPTDVRRAAMDLLARREHGVEELRLKLKRRFGREEDFETIATEQLQRLVDEDLLSDTRF | -0.948
HMGVEKHLRITGTSTVSWKDAIVQAVAEASKTIDYLSNVKIIEQRARIDGKKLVEYFVDLDLSFVID | -0.38
HMSGAKLLAPVTGTLLRYTVAEGTKVSEGQTVIMLESMKMELEINAHKAGVIHFTAAAGAQVAEGDSLAEI | -0.419
HMSVERIEPPLPLIDTLLALRDALERPLSREENAFLSRRFAGGATRAQIDALAAQFRGAAAAESKV | -0.324
HMSIPVLKDGTYESWGNEKVYKVGDRVMVGSNGYVAKWWNQDETPEKAIINPNDSPWRPMTESEIMEVLK | -0.113
HMYLGRKATLLSSISGEKMGNAEVLADGNLMSIYVKSLTGEPLSYGSTVLIIKHSEDQNFYLVQN | -0.65
HMNSVSIAPEMLNWVIAHIQMNSLPKQIVEHLTAWISGQKEPTFNQIEKVSRATGIPLGYFFLEQPPKE | -1.02
HMHIMINPDQLSPEQIQSIRTWAEEGLDLNAIQKRLHEDLNIKLTFMDTRFLLQDLDIRIRQPEPEPEAEQ | -0.67
HMFKITNTLNKTAEVYLTIPENKKGKGKIMISVNGAFHELEAMTENDKIQSGAVVKVVRIENDNILIVET | -1.96
HMGEQVAVPDVTKKSVREVNNILTSAGLRLQIEGSGISVRQDPPADTMVAPDTVVTVSFEPP | -0.0261
HMGKVNTRNRNEGKFYKNGKKKPANWEYRFEAAPVNGKRQQISDAGYPTEKAAYEAGIAAYEKYNSAGSVN | 0.0128
HMTKGVQMFAEQLKRTRQSRHYSQAEIASKLGVTQQAIAKWETGVSTPSPTSISKLSDILGISTDVLLKGA | ≥ 0.43
HMYRYGETPMVVVPDLIGRTVSDIYEEMNADFRLEKFGNGNTVISQAPKPGERVEQGSVIRVYLSGQDQ | -0.206
HMGVQKGKDNALAVQQWIAERDATGDFGEYERRGIINRSALFDELGIPRSSMGSNDQIRQMIEAADVRWF | -0.663
HMGTRTILGIDPGSRKTGFGIIRLDGSRTHYVSSGVIRIPDTALPERLKIIFASLNEIIQQFQPQEV | 0.107
HMNTVSVGNLGLSVRAVNALKQAGIDTYDKLQELSWEELLLIPKLGQVTAAEIYRFITSYKKG | -0.491
